Measured values as given in paper PMC5344980, “PARP1 promotes gene expression at the post-transcriptional level by modulating the RNA-binding protein HuR”.

How the values were obtained:
GST-HuR [1] = biological target: T1, GST-HuR (human? (species ; plasmid …, UniProt Q15717 1-326); assay: EMSA; no PARP1; Kd value only in figure; 3 mM MgCl2, 40 mM KCl, 5% glycerol, 2 mM DTT, 2 ug tRNA, 20 uM (so in the source) 5'-biotin RNA, 40 min at room temperature; 6% native acrylamide gel; protein 100-160; conditions: protein: recombinant; tags: GST; label: 5' biotin
GST-HuR [2] = biological target: T1, GST-HuR; assay: EMSA; no PARP1; several shifted bands; 3 mM MgCl2, 40 mM KCl, 5% glycerol, 2 mM DTT, 2 ug tRNA, 20 uM (so in the source) 5'-biotin RNA, 40 min at room temperature; 6% native acrylamide gel; protein 100-160; conditions: protein: recombinant; tags: GST; label: 5' biotin
PARP1 = PARP1 (UniProt P09874 2-1014); assay: EMSA; PARylation buffer, titrated sonicated DNA; no shifted bands; 3 mM MgCl2, 40 mM KCl, 5% glycerol, 2 mM DTT, 2 ug tRNA, 20 uM (so in the source) 5'-biotin RNA, 40 min at room temperature; 6% native acrylamide gel; protein 100-160; conditions: protein: recombinant; label: 5' biotin
GST-HuR [3] = biological target: T1, GST-HuR; assay: EMSA; no PARP1; 3 mM MgCl2, 40 mM KCl, 5% glycerol, 2 mM DTT, 2 ug tRNA, 20 uM (so in the source) 5'-biotin RNA, 40 min at room temperature; 6% native acrylamide gel; protein 100-160; conditions: protein: recombinant; tags: GST; label: 5' biotin
GST-HuR [4] = biological target: T1, GST-HuR; assay: EMSA; with PARP1 + PJ34; enhancement abolished; 3 mM MgCl2, 40 mM KCl, 5% glycerol, 2 mM DTT, 2 ug tRNA, 20 uM (so in the source) 5'-biotin RNA, 40 min at room temperature; 6% native acrylamide gel; protein 100-160; conditions: protein: recombinant; tags: GST; label: 5' biotin

T1 sequence (Q15717 whole entry): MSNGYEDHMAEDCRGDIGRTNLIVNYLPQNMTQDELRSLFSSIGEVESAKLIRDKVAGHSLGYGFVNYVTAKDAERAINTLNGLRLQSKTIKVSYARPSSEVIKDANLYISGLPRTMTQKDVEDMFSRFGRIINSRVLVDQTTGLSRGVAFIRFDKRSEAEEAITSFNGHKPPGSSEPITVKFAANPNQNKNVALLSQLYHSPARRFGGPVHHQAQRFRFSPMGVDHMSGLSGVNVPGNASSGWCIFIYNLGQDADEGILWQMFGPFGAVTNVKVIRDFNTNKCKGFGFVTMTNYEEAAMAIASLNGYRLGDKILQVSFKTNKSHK
Chain of PARP1 (P09874 2-1014): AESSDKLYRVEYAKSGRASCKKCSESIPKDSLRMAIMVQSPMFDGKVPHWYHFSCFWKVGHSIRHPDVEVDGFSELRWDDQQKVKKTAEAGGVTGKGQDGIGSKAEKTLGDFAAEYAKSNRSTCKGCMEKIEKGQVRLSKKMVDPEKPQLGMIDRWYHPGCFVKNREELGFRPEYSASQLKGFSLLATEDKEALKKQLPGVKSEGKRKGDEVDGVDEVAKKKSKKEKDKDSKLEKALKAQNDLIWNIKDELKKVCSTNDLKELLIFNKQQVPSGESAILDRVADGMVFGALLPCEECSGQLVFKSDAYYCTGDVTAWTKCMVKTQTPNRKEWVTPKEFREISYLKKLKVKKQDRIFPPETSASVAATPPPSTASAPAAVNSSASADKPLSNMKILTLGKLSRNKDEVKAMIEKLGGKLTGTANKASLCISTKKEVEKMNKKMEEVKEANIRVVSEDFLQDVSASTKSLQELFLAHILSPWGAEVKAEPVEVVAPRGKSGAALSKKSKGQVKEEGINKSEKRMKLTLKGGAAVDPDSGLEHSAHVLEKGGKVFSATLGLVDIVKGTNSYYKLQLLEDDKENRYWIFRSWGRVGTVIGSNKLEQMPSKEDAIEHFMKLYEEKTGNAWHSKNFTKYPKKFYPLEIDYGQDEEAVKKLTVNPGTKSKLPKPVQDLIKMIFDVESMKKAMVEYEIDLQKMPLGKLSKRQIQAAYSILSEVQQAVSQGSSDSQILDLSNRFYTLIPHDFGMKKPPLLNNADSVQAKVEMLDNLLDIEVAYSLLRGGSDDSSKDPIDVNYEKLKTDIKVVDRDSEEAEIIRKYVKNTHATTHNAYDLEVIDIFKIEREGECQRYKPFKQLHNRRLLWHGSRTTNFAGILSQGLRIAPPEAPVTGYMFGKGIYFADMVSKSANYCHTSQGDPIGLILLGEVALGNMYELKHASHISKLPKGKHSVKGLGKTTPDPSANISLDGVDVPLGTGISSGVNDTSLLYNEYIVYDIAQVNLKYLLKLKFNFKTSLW

B1: Cxcl2-ARE1 RNA oligo (ssRNA)
RNA: AGUUCACUUAUUUAUUUAUCUAUGU
binding result (GST-HuR [1]): binds

B2: AU-rich RNA oligo (tandem ARE) (ssRNA)
RNA: AUUUAUUUAUUUAUUUAUUUAUUUA
binding result (GST-HuR [2]): binds | binding result (PARP1): no binding

B3: Cxcl2-ARE3 RNA oligo (ssRNA)
RNA: GUGGACACAUUUAUUUAUUCAUGUA
binding result (GST-HuR [3]): no binding

B4: Cxcl2-ARE2 RNA oligo (ssRNA)
RNA: CUAUGUAUUUAUUUAUUUAUUAAUU
binding result (GST-HuR [4]): binds
